The target of assay [1] is human 40S small ribosomal subunit (human) (UniProt P23396). Description: cryo-EM structure.
Assay [2] has as its target Cy3-labeled human 40S subunit (human) (UniProt P62841). Description: FRET or BRET. On the technique in general: In BRET a luciferase serves as donor, and the signal depends on an acceptor being close.

The values below come from publication PMC10575594.

In assay [1], “Bat-Hp-CoV Nsp1 wild type (natural protein)” registered a fraction of 40S complexes with density for the Nsp1 linker and NTD of 15%.
Usually koff stands for a measure of how fast the partners let go of each other. A high value points to fast dissociation. With “Cy5-labeled Bat-Hp-CoV Nsp1 (natural protein)”, in assay [2], the fraction of tethered 40S complexes that yielded FRET is 10 to 20%, the koff is below 0.01 s⁻¹ and the lifetime of the FRET signal was above 100 s.
